Laboratory results from patent publication US20230002480A1.

Key:
Test in all cases: cell-based or functional assay
[1] = molecular target: HIV-1 Env of pseudovirus 0260.v5.c36 (HIV-1)
[2] = molecular target: HIV-1 Env of pseudovirus 1012_11_TC21_3257 (HIV-1)
[3] = molecular target: HIV-1 Env of pseudovirus 191955_A11 (HIV-1)
[4] = molecular target: HIV-1 Env of pseudovirus 211-9 (HIV-1)
[5] = molecular target: HIV-1 Env of pseudovirus 231965.c01 (HIV-1)
[6] = molecular target: HIV-1 Env of pseudovirus 231966.c02 (HIV-1)
[7] = molecular target: HIV-1 Env of pseudovirus 3016.v5.c45 (HIV-1)
[8] = molecular target: HIV-1 Env of pseudovirus 6041.v3.c23 (HIV-1)
[9] = molecular target: HIV-1 Env of pseudovirus 6240_08_TA5_4622 (HIV-1)
[10] = molecular target: HIV-1 Env of pseudovirus 6480.v4.c25 (HIV-1)
[11] = molecular target: HIV-1 Env of pseudovirus AC10.0.29 (HIV-1)
[12] = molecular target: HIV-1 Env of pseudovirus BJOX025000.01.1 (HIV-1)
[13] = molecular target: HIV-1 Env of pseudovirus BJOX028000.10.3 (HIV-1)
[14] = molecular target: HIV-1 Env of pseudovirus CNE17 (HIV-1)
[15] = molecular target: HIV-1 Env of pseudovirus CNE19 (HIV-1)
[16] = molecular target: HIV-1 Env of pseudovirus CNE21 (HIV-1)
[17] = molecular target: HIV-1 Env of pseudovirus CNE52 (HIV-1)
[18] = molecular target: HIV-1 Env of pseudovirus CNE53 (HIV-1)
[19] = molecular target: HIV-1 Env of pseudovirus Ce1172_H1 (HIV-1)
[20] = molecular target: HIV-1 Env of pseudovirus Ce1176_A3 (HIV-1)
[21] = molecular target: HIV-1 Env of pseudovirus Ce2010_F5 (HIV-1)
[22] = molecular target: HIV-1 Env of pseudovirus Du156.12 (HIV-1)
[23] = molecular target: HIV-1 Env of pseudovirus HIV-0013095-2.11 (HIV-1)
[24] = molecular target: HIV-1 Env of pseudovirus HIV-16845-2.22 (HIV-1)
[25] = molecular target: HIV-1 Env of pseudovirus P1981_C5_3 (HIV-1)
[26] = molecular target: HIV-1 Env of pseudovirus Q461.e2 (HIV-1)
[27] = molecular target: HIV-1 Env of pseudovirus SC422661.8 (HIV-1)
[28] = molecular target: HIV-1 Env of pseudovirus T250-4 (HIV-1)
[29] = molecular target: HIV-1 Env of pseudovirus T255-34 (HIV-1)
[30] = molecular target: HIV-1 Env of pseudovirus THRO4156.18 (HIV-1)
[31] = molecular target: HIV-1 Env of pseudovirus TRO.11 (HIV-1)
[32] = molecular target: HIV-1 Env of pseudovirus WEAU_d15_410_787 (HIV-1)
[33] = molecular target: HIV-1 Env of pseudovirus X2088_c9 (HIV-1)
[34] = molecular target: HIV-1 Env of pseudovirus ZM109F.PB4 (HIV-1)
[35] = molecular target: HIV-1 Env of pseudovirus ZM247v1(Rev-) (HIV-1)

PGT128 (antibody)
IC50 [1]: 0.058 µg/mL
IC80 [1]: 0.162 µg/mL
IC50 [2]: 0.011 µg/mL
IC80 [2]: 0.033 µg/mL
IC50 [3]: 14.2 µg/mL
IC80 [3]: > 50 µg/mL
IC50, titer in TZM.bl cells [4]: 0.062 µg/mL
IC80, titer in TZM.bl cells [4]: 0.215 µg/mL
IC50, titer in TZM.bl cells [5]: > 50 µg/mL
IC80, titer in TZM.bl cells [5]: > 50 µg/mL
IC50, titer in TZM.bl cells [6]: 3.2 µg/mL
IC80, titer in TZM.bl cells [6]: > 50 µg/mL
IC50, titer in TZM.bl cells [7]: > 50 µg/mL
IC80, titer in TZM.bl cells [7]: > 50 µg/mL
IC50, titer in TZM.bl cells [8]: > 50 µg/mL
IC80, titer in TZM.bl cells [8]: > 50 µg/mL
IC50 [9]: 0.019 µg/mL
IC80 [9]: 0.055 µg/mL
IC50, titer in TZM.bl cells [10]: 0.003 µg/mL
IC80, titer in TZM.bl cells [10]: 0.019 µg/mL
IC50 [11]: 0.008 µg/mL
IC80 [11]: 0.018 µg/mL
IC50, titer in TZM.bl cells [12]: > 50 µg/mL
IC80, titer in TZM.bl cells [12]: > 50 µg/mL
IC50, titer in TZM.bl cells [13]: 0.024 µg/mL
IC80, titer in TZM.bl cells [13]: 0.07 µg/mL
IC50 [14]: 0.432 µg/mL
IC80 [14]: 1.99 µg/mL
IC50 [15]: > 50 µg/mL
IC80 [15]: > 50 µg/mL
IC50 [16]: 0.01 µg/mL
IC80 [16]: 0.026 µg/mL
IC50 [17]: > 50 µg/mL
IC80 [17]: > 50 µg/mL
IC50 [18]: 0.01 µg/mL
IC80 [18]: 0.049 µg/mL
IC50 [19]: 0.013 µg/mL
IC80 [19]: 0.038 µg/mL
IC50 [20]: 0.009 µg/mL
IC80 [20]: 0.026 µg/mL
IC50 [21]: > 50 µg/mL
IC80 [21]: > 50 µg/mL
IC50 [22]: 0.017 µg/mL
IC80 [22]: 0.046 µg/mL
IC50 [23]: > 50 µg/mL
IC80 [23]: > 50 µg/mL
IC50 [24]: 0.181 µg/mL
IC80 [24]: 0.834 µg/mL
IC50, titer in TZM.bl cells [25]: 0.019 µg/mL
IC80, titer in TZM.bl cells [25]: 0.088 µg/mL
IC50 [26]: > 50 µg/mL
IC80 [26]: > 50 µg/mL
IC50 [27]: 1.08 µg/mL
IC80 [27]: 18.4 µg/mL
IC50 [28]: < 0.001 µg/mL
IC80 [28]: 0.007 µg/mL
IC50, titer in TZM.bl cells [29]: > 50 µg/mL
IC80, titer in TZM.bl cells [29]: > 50 µg/mL
IC50 [30]: > 50 µg/mL
IC80 [30]: > 50 µg/mL
IC50 [31]: 0.019 µg/mL
IC80 [31]: 0.045 µg/mL
IC50 [32]: 0.032 µg/mL
IC80 [32]: 0.153 µg/mL
IC50, titer in TZM.bl cells [33]: > 50 µg/mL
IC80, titer in TZM.bl cells [33]: > 50 µg/mL
IC50 [34]: > 50 µg/mL
IC80 [34]: > 50 µg/mL
IC50 [35]: 0.021 µg/mL
IC80 [35]: 0.081 µg/mL

PGT151 (antibody)
IC50 [1]: 0.427 µg/mL
IC80 [1]: > 50 µg/mL
IC50 [2]: > 50 µg/mL
IC80 [2]: > 50 µg/mL
IC50 [3]: 0.004 µg/mL
IC80 [3]: 0.014 µg/mL
IC50, titer in TZM.bl cells [4]: 0.002 µg/mL
IC80, titer in TZM.bl cells [4]: 0.01 µg/mL
IC50, titer in TZM.bl cells [5]: < 0.001 µg/mL
IC80, titer in TZM.bl cells [5]: 0.012 µg/mL
IC50, titer in TZM.bl cells [6]: 0.025 µg/mL
IC80, titer in TZM.bl cells [6]: 0.183 µg/mL
IC50, titer in TZM.bl cells [7]: 0.174 µg/mL
IC80, titer in TZM.bl cells [7]: 40.7 µg/mL
IC50, titer in TZM.bl cells [8]: 0.004 µg/mL
IC80, titer in TZM.bl cells [8]: 0.024 µg/mL
IC50 [9]: 0.046 µg/mL
IC80 [9]: 0.42 µg/mL
IC50 [11]: 0.007 µg/mL
IC80 [11]: 0.023 µg/mL
IC50, titer in TZM.bl cells [12]: > 50 µg/mL
IC80, titer in TZM.bl cells [12]: > 50 µg/mL
IC50, titer in TZM.bl cells [13]: > 50 µg/mL
IC80, titer in TZM.bl cells [13]: > 50 µg/mL
IC50 [14]: 0.093 µg/mL
IC80 [14]: > 50 µg/mL
IC50 [15]: 0.014 µg/mL
IC80 [15]: > 50 µg/mL
IC50 [16]: 0.004 µg/mL
IC80 [16]: 0.012 µg/mL
IC50 [17]: 0.004 µg/mL
IC80 [17]: 0.017 µg/mL
IC50 [18]: > 50 µg/mL
IC80 [18]: > 50 µg/mL
IC50 [19]: > 50 µg/mL
IC80 [19]: > 50 µg/mL
IC50 [20]: 0.006 µg/mL
IC80 [20]: 0.018 µg/mL
IC50 [21]: > 50 µg/mL
IC80 [21]: > 50 µg/mL
IC50 [22]: 0.005 µg/mL
IC80 [22]: 0.023 µg/mL
IC50 [23]: > 50 µg/mL
IC80 [23]: > 50 µg/mL
IC50 [24]: > 50 µg/mL
IC80 [24]: > 50 µg/mL
IC50, titer in TZM.bl cells [25]: 0.021 µg/mL
IC80, titer in TZM.bl cells [25]: > 50 µg/mL
IC50 [26]: 12.6 µg/mL
IC80 [26]: > 50 µg/mL
IC50 [27]: 0.005 µg/mL
IC80 [27]: 0.028 µg/mL
IC50 [28]: 0.005 µg/mL
IC80 [28]: 0.014 µg/mL
IC50, titer in TZM.bl cells [29]: 0.002 µg/mL
IC80, titer in TZM.bl cells [29]: 0.01 µg/mL
IC50 [30]: > 50 µg/mL
IC80 [30]: > 50 µg/mL
IC50 [31]: > 50 µg/mL
IC80 [31]: > 50 µg/mL
IC50 [32]: 0.01 µg/mL
IC80 [32]: > 50 µg/mL
IC50, titer in TZM.bl cells [33]: > 50 µg/mL
IC80, titer in TZM.bl cells [33]: > 50 µg/mL
IC50 [34]: 0.609 µg/mL
IC80 [34]: > 50 µg/mL
IC50 [35]: 0.009 µg/mL
IC80 [35]: > 50 µg/mL
